From patent US20110263454A1, “Methods of Identifying Functional Characteristics of Promoters, Transcription Modifying Proteins and Transcription Modulating Agents” (Salk Institute for Biological Studies, priority 2008, published 2011)

B1: NR4a3: NR4a3 (NR4A3; NOR1), nuclear hormone receptor cDNA driver (protein, UniProt Q92570 1-626, looked up)
Nuclear receptor subfamily 4 …: MPCVQAQYSPSPPGSSYAAQTYSSEYTTEIMNPDYTKLTMDLGSTEITATATTSLPSISTFVEGYSSNYELKPSCVYQMQRPLIKVEEGRAPSYHHHHHHHHHHHHHHQQQHQQPSIPPASSPEDEVLPSTSMYFKQSPPSTPTTPAFPPQAGALWDEALPSAPGCIAPGPLLDPPMKAVPTVAGARFPLFHFKPSPPHPPAPSPAGGHHLGYDPTAAAALSLPLGAAAAAGSQAAALESHPYGLPLAKRAAPLAFPPLGLTPSPTASSLLGESPSLPSPPSRSSSSGEGTCAVCGDNAACQHYGVRTCEGCKGFFKRTVQKNAKYVCLANKNCPVDKRRRNRCQYCRFQKCLSVGMVKEVVRTDSLKGRRGRLPSKPKSPLQQEPSQPSPPSPPICMMNALVRALTDSTPRDLDYSRYCPTDQAAAGTDAEHVQQFYNLLTASIDVSRSWAEKIPGFTDLPKEDQTLLIESAFLELFVLRLSIRSNTAEDKFVFCNGLVLHRLQCLRGFGEWLDSIKDFSLNLQSLNLDIQALACLSALSMITERHGLKEPKRVEELCNKITSSLKDHQSKGQALEPTESKVLGALVELRKICTLGLQRIFYLKLEDLVSPPSIIDKLFLDTLPF
B2: GCNF: Germ Cell Nuclear Factor (NR6A1, GCNF1), cDNA driver (protein, UniProt Q15406 1-480, looked up)
Nuclear receptor subfamily 6 …: MERDEPPPSGGGGGGGSAGFLEPPAALPPPPRNGFCQDELAELDPGTISVSDDRAEQRTCLICGDRATGLHYGIISCEGCKGFFKRSICNKRVYRCSRDKNCVMSRKQRNRCQYCRLLKCLQMGMNRKAIREDGMPGGRNKSIGPVQISEEEIERIMSGQEFEEEANHWSNHGDSDHSSPGNRASESNQPSPGSTLSSSRSVELNGFMAFREQYMGMSVPPHYQYIPHLFSYSGHSPLLPQQARSLDPQSYSLIHQLLSAEDLEPLGTPMLIEDGYAVTQAELFALLCRLADELLFRQIAWIKKLPFFCELSIKDYTCLLSSTWQELILLSSLTVYSKQIFGELADVTAKYSPSDEELHRFSDEGMEVIERLIYLYHKFHQLKVSNEEYACMKAINFLNQDIRGLTSASQLEQLNKRYWYICQDFTEYKYTHQPNRFPDLMMCLPEIRYIAGKMVNVPLEQLPLLFKVVLHSCKTSVGKE
B3: PR: Progesterone Receptor (NR3C3), cDNA driver (protein, UniProt P06401 1-933, looked up)
Progesterone receptor: MTELKAKGPRAPHVAGGPPSPEVGSPLLCRPAAGPFPGSQTSDTLPEVSAIPISLDGLLFPRPCQGQDPSDEKTQDQQSLSDVEGAYSRAEATRGAGGSSSSPPEKDSGLLDSVLDTLLAPSGPGQSQPSPPACEVTSSWCLFGPELPEDPPAAPATQRVLSPLMSRSGCKVGDSSGTAAAHKVLPRGLSPARQLLLPASESPHWSGAPVKPSPQAAAVEVEEEDGSESEESAGPLLKGKPRALGGAAAGGGAAAVPPGAAAGGVALVPKEDSRFSAPRVALVEQDAPMAPGRSPLATTVMDFIHVPILPLNHALLAARTRQLLEDESYDGGAGAASAFAPPRSSPCASSTPVAVGDFPDCAYPPDAEPKDDAYPLYSDFQPPALKIKEEEEGAEASARSPRSYLVAGANPAAFPDFPLGPPPPLPPRATPSRPGEAAVTAAPASASVSSASSSGSTLECILYKAEGAPPQQGPFAPPPCKAPGASGCLLPRDGLPSTSASAAAAGAAPALYPALGLNGLPQLGYQAAVLKEGLPQVYPPYLNYLRPDSEASQSPQYSFESLPQKICLICGDEASGCHYGVLTCGSCKVFFKRAMEGQHNYLCAGRNDCIVDKIRRKNCPACRLRKCCQAGMVLGGRKFKKFNKVRVVRALDAVALPQPVGVPNESQALSQRFTFSPGQDIQLIPPLINLLMSIEPDVIYAGHDNTKPDTSSSLLTSLNQLGERQLLSVVKWSKSLPGFRNLHIDDQITLIQYSWMSLMVFGLGWRSYKHVSGQMLYFAPDLILNEQRMKESSFYSLCLTMWQIPQEFVKLQVSQEEFLCMKVLLLLNTIPLEGLRSQTQFEEMRSSYIRELIKAIGLRQKGVVSSSQRFYQLTKLLDNLHDLVKQLHLYCLNTFIQSRALSVEFPEMMSEVIAAQLPKILAGMVKPLLFHKK
B4: NR4a2: NR4a2 (NR4A2; NURR1), nuclear hormone receptor cDNA driver (protein, UniProt P43354 1-598, looked up)
Nuclear receptor subfamily 4 …: MPCVQAQYGSSPQGASPASQSYSYHSSGEYSSDFLTPEFVKFSMDLTNTEITATTSLPSFSTFMDNYSTGYDVKPPCLYQMPLSGQQSSIKVEDIQMHNYQQHSHLPPQSEEMMPHSGSVYYKPSSPPTPTTPGFQVQHSPMWDDPGSLHNFHQNYVATTHMIEQRKTPVSRLSLFSFKQSPPGTPVSSCQMRFDGPLHVPMNPEPAGSHHVVDGQTFAVPNPIRKPASMGFPGLQIGHASQLLDTQVPSPPSRGSPSNEGLCAVCGDNAACQHYGVRTCEGCKGFFKRTVQKNAKYVCLANKNCPVDKRRRNRCQYCRFQKCLAVGMVKEVVRTDSLKGRRGRLPSKPKSPQEPSPPSPPVSLISALVRAHVDSNPAMTSLDYSRFQANPDYQMSGDDTQHIQQFYDLLTGSMEIIRGWAEKIPGFADLPKADQDLLFESAFLELFVLRLAYRSNPVEGKLIFCNGVVLHRLQCVRGFGEWIDSIVEFSSNLQNMNIDISAFSCIAALAMVTERHGLKEPKRVEELQNKIVNCLKDHVTFNNGGLNRPNYLSKLLGKLPELRTLCTQGLQRIFYLKLEDLVPPPAIIDKLFLDTLPF

Legend:
mPer1 promoter = test: NHR-promoter luciferase screen, mPer1 promoter; type: cell-based, mouse; conditions: for Luc. act., normalized to lacZ / Normalized Luc. act., normalized to control: Per1 promoter reporter, co-transfected HR, with or without its ligand; for Normalized Luc. act., normalized to control: relative to control; for luciferase activity normalized to lacZ activity and to a control, mPer1: mPer1 promoter-luciferase, CV-1 cells, NHR +/- ligand, control = 1.00
In short: (§1)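 CV-1 cells were co-transfected with 50 ng NHR (homodimer or NHR/RXR heterodimer), 100 ng promoter-luciferase construct and 50 ng LacZ. Luciferase was normalized to LacZ and to a no-NHR/no-ligand control.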

RevErba promoter = test: NHR-promoter luciferase screen, RevErba (RVRa) promoter; type: cell-based; parameters: key to mRevErba promoter reporter activity / Normalized Luc. act., normalized to control: luciferase activity normalized to lacZ and to control (no NHR/ligand); conditions: for Luc. act., normalized to lacZ / Normalized Luc. act., normalized to control / negative reciprocal of normalized Luc. act. (fold repression; Table 33) / normalized Luc. act. on a logarithmic scale (column without head, Table 33): RVRa promoter; for Luc. act., normalized to lacZ / Normalized Luc. act., normalized to control: HR component without or with ligand; for negative reciprocal of normalized Luc. act. (fold repression; Table 33): given only where activity is below control; for normalized Luc. act. on a logarithmic scale (column without head, Table 33): log10 of activity normalized to control; for mRevErba promoter reporter activity: transcription factor +/- ligand, control = 1.00
In short: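 Reporter readout: RevErbα promoter-driven luciferase, corrected for LacZ transfection efficiency and expressed relative to a no-receptor or no-ligand control. Receptors (V5H6-tagged, pcDNA3.1), alone or with RXR, plus any ligand, were expressed in CV-1 cells.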

hPPARg1 promoter = test: NHR-promoter luciferase screen, hPPARg1 promoter; type: cell-based, human; conditions: for Luc. act., normalized to lacZ / Normalized Luc. act., normalized to control: PPARG1 promoter, hormone receptor with or without its ligand; for Normalized Luc. act., normalized to control: relative to control; for Results of assays of transcription factor (+/- ligand) with hPPARg1: Table 6d, luciferase activity relative to control (control = 1.00)
In short: as §1

mPgc1b promoter = test: NHR-promoter luciferase screen, mPgc1b promoter; type: cell-based, mouse; conditions: for Luc. act., normalized to lacZ / Normalized Luc. act., normalized to control: PGC1b promoter reporter, co-transfected HR, without or with its ligand; for Normalized Luc. act., normalized to control: relative to control; for luciferase activity normalized to lacZ activity and to a control, mPgc1b: mPgc1b promoter-luciferase, CV-1 cells, NHR +/- ligand, control = 1.00
In short: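 Luciferase reporter read-out after co-expression in CV-1 cells of V5H6-tagged receptor (alone or with RXR), the promoter construct and LacZ. Values are luciferase/LacZ relative to a control lacking NHR or ligand; orphan receptors tested ligand-free.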

mAdiponectin promoter = test: NHR-promoter luciferase screen, mAdiponectin promoter; type: cell-based, mouse; conditions: for Luc. act., normalized to lacZ / Normalized Luc. act., normalized to control: Adiponectin, HR component without or with its ligand; for mAdiponectin promoter reporter activity: transcription factor +/- ligand, control = 1.00
In short: as §1

Row | Molecule | Luc. act., normalized to lacZ (mPer1 promoter) | Normalized Luc. act., normalized to control (mPer1 promoter) | luciferase activity normalized to lacZ activity and to a control, mPer1 (mPer1 promoter) | Luc. act., normalized to lacZ (RevErba promoter) | Normalized Luc. act., normalized to control (RevErba promoter) | negative reciprocal of normalized Luc. act. (fold repression; Table 33) (RevErba promoter) | normalized Luc. act. on a logarithmic scale (column without head, Table 33) (RevErba promoter) | mRevErba promoter reporter activity (RevErba promoter) | Luc. act., normalized to lacZ (hPPARg1 promoter) | Normalized Luc. act., normalized to control (hPPARg1 promoter) | Results of assays of transcription factor (+/- ligand) with hPPARg1 (hPPARg1 promoter) | Luc. act., normalized to lacZ (mPgc1b promoter) | Normalized Luc. act., normalized to control (mPgc1b promoter) | luciferase activity normalized to lacZ activity and to a control, mPgc1b (mPgc1b promoter) | Luc. act., normalized to lacZ (mAdiponectin promoter) | Normalized Luc. act., normalized to control (mAdiponectin promoter) | mAdiponectin promoter reporter activity (mAdiponectin promoter)
1 | B1 | 139.6 | 1.0 | 0.97 | 14.7 | 0.5 | −1.9 | −0.28 | 0.53 | 61.0 | 0.9 | 0.88 | 9.2 | 0.8 | 0.77 | 35.7 | 0.6 | 0.57
2 | B2 | 151.9 | 1.1 | 1.06 | 25.7 | 0.9 | −1.087 | −0.04 | 0.92 | 88.6 | 1.3 | 1.29 | 11.7 | 1.0 | 0.99 | 63.1 | 1.0 | 1.00
3 | B3 | 207.4 | 1.4 | 1.44 | 24.1 | 0.9 | −1.16 | −0.06 | 0.86 | 81.3 | 1.2 | 1.18 | 8.9 | 0.7 | 0.75 | 52.9 | 0.8 | 0.84
4 | B4 | 155.3 | 1.1 | 1.08 | 20.6 | 0.7 | −1.357 | −0.13 | 0.74 | 58.8 | 0.9 | 0.85 | 9.0 | 0.8 | 0.76 | 35.8 | 0.6 | 0.57
